Test results as given in US12729368B2, “Methods and compositions for generating oligodendrocyte progenitor cells” (Trailhead Biosystems Inc., priority 2022, dated 2026).
Values joined by “and” are separate entries in the source; they are usually repeats but may differ in a detail not shown here. Equal entries are not always repeated.

Experiments:
Assay type in all cases: cell-based, human
[1] = test system: stage 2 early-OPCs; assay: HD-DoE 8-factor model for stage 3 (version 1) on stage 2 early-OPCs; conditions: optimized for maximum expression of OLIG1 at 256; positive impact
Protocol: To further differentiate the cells to an oligodendrocyte progenitor identity, additional HD-DoE experiments were performed on the cells that were cultured in stage 1 and stage 2 differentiation media. After 3 days, gene expression of cells in different combinatorial conditions were investigated. At this time, we focused on maximal expression of signature oligodendrocyte progenitor genes such as SOX10, OLIG1 and PDGFRa (Goldman and Kuypers (2015) Development 142:3983-95; Marques et al. (2016) Science 352:1326-1329). In one 8-factor model, individual and combinatorial effects of LDN193189, SUN 11602, Activin A, Biotin, TTNPB, Isoproterenol, linoleic acid and T3+T4 were tested.
The same model was also optimized for maximum expression of PDGFRa at 3510.9. Two factor specifically, TTNPB and Linoleic acid determined the expression level of PDGFRa with factor contribution of 71.6 and 22.1, respectively (FIG. 17). […] The model was also optimized for highest expression of SOX10 at 18.8. In this optimization, TTNPB was the only input that could elevate the expression level of the selected gene (FIG. 18).
Dynamic profile analysis was utilized to explore combination sets that can optimize expression of all three selected genes. […]

[2] = test system: stage 2 early-OPCs; assay: HD-DoE 12-factor model for stage 3 (version 1) on stage 2 early-OPCs; conditions: positive
Protocol: In another model, the effects of Activin A and TTNPB along with LDN193189, MHY1485, PDGF-AA, AICAR, FGF2, CHIR99021, DBZ, MK2206, Purmorphamine and T3+T4 were tested on gene profile of differentiating cells. When this model was optimized for maximum expression of SOX10 at 54.7, we observed Activin A again had positive regulatory impact on its expression, with factor contribution of 4.7. Other positive factors included MK2206, with the highest factor contribution at 16.2, MHY1485 at 11.49, CHIR99021 at 9.6, DBZ at 9.3, FGF2 at 3.6 and PDGF-AA, with factor contribution less than 3 (FIG. 20).
In this model, we also investigated the conditions of expression of another important OPC gene, CSPG4 (Goldman and Kuypers (2015) Development 142:3983-95: van Tilborg et al. (2018) Glia 66:221-238).
Dynamic profile analysis was used to better assess the impact of the factors on our selected genes and find the combination set that can optimize their expression (FIG. 22). According to this analysis, even though Activin A has a positive effect on SOX10, it decreases level of PDGFRa and OLIG1. […]

[3] = test system: OPCs; assay: HD-DoE 8-factor model for stage 4 on OPCs; conditions: optimized for maximal expression of CNP at 1339; positive
Protocol: (§1) To engineer the recipe of stage 4 of differentiation, 48 or 96 different combinations of effectors generated using Design-of-Experiments compression through D-optimality were robotically prepared. The effector combinations were prepared in a basal media and were subsequently added to the cells, which were treated with the stage 1, stage 2 and stage 3 differentiation media as described in the earlier examples to generate OPCs. […] Solutions within the tested space could then be explored to address desirability.

[4] = test system: OPCs; assay: HD-DoE 12-factor model for stage 4 on OPCs, 6 days in culture; conditions: positive
Protocol: as §1, with “desirability. […] Benarroch (2009) Neurology 72:1779-1785; Shi et al. (2019) Exp Ther Med, 18:1258-1266).” for “desirability.”

B1: Activin A: an activator of one of the receptors of TGF-b superfamily (protein, UniProt P08476 311-426, looked up)
Inhibin beta A chain: GLECDGKVNICCKKQFFVSFKDIGWNDWIIAPSGYHANYCEGECPSHIAGTSGSSLSFHSTVINHYRMRGHSPFANLKSCCVPTKLRPMSMLYYDDGQNIIKKDIQNMIVEECGCS
factor contribution [1]: 50.2
factor contribution ([2]; optimized for maximum expression of CSPG4 at 38.6): 9.3
factor contribution ([2]; optimized for maximum expression of SOX10 at 54.7): 4.7

B2: NT-3: TrkC agonist (protein, UniProt P20783 139-257, looked up)
Neurotrophin-3: YAEHKSHRGEYSVCDSESLWVTDKSSAIDIRGHQVTVLGEIKTGNSPVKQYFYETRCKEARPVKNGCRGIDDKHWNSQCKTSQTYVRALTSENNKLVGWRWIRIDTSCVCALSRKIGRT
factor contribution [3]: 24
factor contribution ([4]; optimized for CNP at 1790): 13 and 13.3
factor contribution ([4]; optimized for PLP1 at 3600): 7
